Laboratory results reported in PMC10786891, “Massively parallel profiling of RNA-targeting CRISPR-Cas13d”.

T1: EsCas13d, nuclease-dead (Eubacterium siraeum, UniProt B0MS50, R295A;H300A;R849A;H854A)
T1 sequence: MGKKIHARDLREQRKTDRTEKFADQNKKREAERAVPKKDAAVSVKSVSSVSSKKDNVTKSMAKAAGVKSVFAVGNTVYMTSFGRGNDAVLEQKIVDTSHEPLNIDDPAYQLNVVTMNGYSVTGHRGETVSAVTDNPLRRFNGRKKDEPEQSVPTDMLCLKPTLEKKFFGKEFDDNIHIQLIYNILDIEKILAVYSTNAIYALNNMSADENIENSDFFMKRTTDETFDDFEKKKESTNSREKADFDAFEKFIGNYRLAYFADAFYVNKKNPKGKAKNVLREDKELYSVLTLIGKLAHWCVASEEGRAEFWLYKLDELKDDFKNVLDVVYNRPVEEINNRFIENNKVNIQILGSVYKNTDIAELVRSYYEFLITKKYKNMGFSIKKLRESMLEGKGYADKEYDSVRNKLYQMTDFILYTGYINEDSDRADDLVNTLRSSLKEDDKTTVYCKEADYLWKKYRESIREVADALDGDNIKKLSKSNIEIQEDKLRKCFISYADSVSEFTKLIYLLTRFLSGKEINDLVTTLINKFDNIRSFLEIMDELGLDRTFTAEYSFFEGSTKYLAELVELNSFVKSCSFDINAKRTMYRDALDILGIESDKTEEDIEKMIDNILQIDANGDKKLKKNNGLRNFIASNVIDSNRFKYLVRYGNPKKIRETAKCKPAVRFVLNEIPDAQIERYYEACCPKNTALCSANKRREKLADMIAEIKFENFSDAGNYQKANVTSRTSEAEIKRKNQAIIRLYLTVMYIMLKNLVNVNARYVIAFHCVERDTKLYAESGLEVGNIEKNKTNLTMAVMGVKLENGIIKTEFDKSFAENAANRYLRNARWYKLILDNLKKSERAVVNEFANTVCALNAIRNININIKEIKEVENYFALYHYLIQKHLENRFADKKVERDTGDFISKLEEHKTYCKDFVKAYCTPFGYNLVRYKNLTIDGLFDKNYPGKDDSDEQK


molecular target: T1, EsCas13d, nuclease-dead; experiment: crRNA (strand 1, pre-loaded); Mg2+; 40 mM Tris-HCl pH 7.5, 150 mM NaCl, 6 mM MgCl2, 1 mM DTT, 0.1% Tween-20, 0.2 mg/ml BSA; 25 C; 10 min per concentration, then washed; conditions: tags: His6-TwinStrep-SUMO cleaved; N-terminal SNAP kept (SNAP-Surface 488); label: 3' end held by stalled T7 RNA polymerase

| Binder | Kd [nM] |
| --- | --- |
| target 1 U8A,U10G (mixed) RNA 1: CACCCGUGCAAAAAUGCAGGGGUCUAAAACUGAGCGGAUAACCUCUCUAUGG RNA 2: GGGAAUGGAUCCACAUCUACGAAUUCGUACCAUAGAGAGGUGAACCGCUCACCGAGAUCGGAAGAGCACACGU | 18.2 ± 0.8 |
| target 1 U19C,C22G (mixed) RNA 1: CACCCGUGCAAAAAUGCAGGGGUCUAAAACUGAGCGGAUAACCUCUCUAUGG RNA 2: GGGAAUGGAUCCACAUCUACGAAUUCGUAGCACAGAGAGGUUAUCCGCUCACCGAGAUCGGAAGAGCACACGU | ~80 |
| target 1 insC 3' of 13,insU 3' of 2 (mixed) RNA 1: CACCCGUGCAAAAAUGCAGGGGUCUAAAACUGAGCGGAUAACCUCUCUAUGG RNA 2: GGGAAUGGAUCCACAUCUACGAAUUCGUACCAUAGAGAGCGUUAUCCGCUCUACCGAGAUCGGAAGAGCACACGU | 14.4 ± 1.3 |
| target 1 insG 3' of 16,insG 3' of 14 (mixed) RNA 1: CACCCGUGCAAAAAUGCAGGGGUCUAAAACUGAGCGGAUAACCUCUCUAUGG RNA 2: GGGAAUGGAUCCACAUCUACGAAUUCGUACCAUAGAGGAGGGUUAUCCGCUCACCGAGAUCGGAAGAGCACACGU | 15.6 ± 1.3 |
| target 1 insU 3' of 18,insA 3' of 15 (mixed) RNA 1: CACCCGUGCAAAAAUGCAGGGGUCUAAAACUGAGCGGAUAACCUCUCUAUGG RNA 2: GGGAAUGGAUCCACAUCUACGAAUUCGUACCAUAUGAGAAGGUUAUCCGCUCACCGAGAUCGGAAGAGCACACGU | 20.5 ± 2.5 |
| target 1 insC 3' of 17,insG 3' of 9 (mixed) RNA 1: CACCCGUGCAAAAAUGCAGGGGUCUAAAACUGAGCGGAUAACCUCUCUAUGG RNA 2: GGGAAUGGAUCCACAUCUACGAAUUCGUACCAUAGCAGAGGUUAGUCCGCUCACCGAGAUCGGAAGAGCACACGU | 35 ± 6 |
| target 1 A16G,U19C (mixed) RNA 1: CACCCGUGCAAAAAUGCAGGGGUCUAAAACUGAGCGGAUAACCUCUCUAUGG RNA 2: GGGAAUGGAUCCACAUCUACGAAUUCGUACCACAGGGAGGUUAUCCGCUCACCGAGAUCGGAAGAGCACACGU | 78 ± 33 |
| target 1 insA 3' of 21,insG 3' of 7 (mixed) RNA 1: CACCCGUGCAAAAAUGCAGGGGUCUAAAACUGAGCGGAUAACCUCUCUAUGG RNA 2: GGGAAUGGAUCCACAUCUACGAAUUCGUACCAAUAGAGAGGUUAUCGCGCUCACCGAGAUCGGAAGAGCACACGU | 14.9 ± 0.6 |
| target 1 U8A,U10A (mixed) RNA 1: CACCCGUGCAAAAAUGCAGGGGUCUAAAACUGAGCGGAUAACCUCUCUAUGG RNA 2: GGGAAUGGAUCCACAUCUACGAAUUCGUACCAUAGAGAGGUAAACCGCUCACCGAGAUCGGAAGAGCACACGU | 12.5 ± 0.7 |
| target 1 insU 3' of 20,insC 3' of 5 (mixed) RNA 1: CACCCGUGCAAAAAUGCAGGGGUCUAAAACUGAGCGGAUAACCUCUCUAUGG RNA 2: GGGAAUGGAUCCACAUCUACGAAUUCGUACCAUUAGAGAGGUUAUCCGCCUCACCGAGAUCGGAAGAGCACACGU | 36 ± 10 |
| target 1 insA 3' of 22,insG 3' of 21 (mixed) RNA 1: CACCCGUGCAAAAAUGCAGGGGUCUAAAACUGAGCGGAUAACCUCUCUAUGG RNA 2: GGGAAUGGAUCCACAUCUACGAAUUCGUACACGAUAGAGAGGUUAUCCGCUCACCGAGAUCGGAAGAGCACACGU | 43 ± 6 |
| target 1 insC 3' of 3,insU 3' of 2 (mixed) RNA 1: CACCCGUGCAAAAAUGCAGGGGUCUAAAACUGAGCGGAUAACCUCUCUAUGG RNA 2: GGGAAUGGAUCCACAUCUACGAAUUCGUACCAUAGAGAGGUUAUCCGCUCCUACCGAGAUCGGAAGAGCACACGU | 37 ± 5 |
| target 1 G5U,G15C (mixed) RNA 1: CACCCGUGCAAAAAUGCAGGGGUCUAAAACUGAGCGGAUAACCUCUCUAUGG RNA 2: GGGAAUGGAUCCACAUCUACGAAUUCGUACCAUAGACAGGUUAUCCUCUCACCGAGAUCGGAAGAGCACACGU | 46 ± 9 |
| target 1 C7U,A9C (mixed) RNA 1: CACCCGUGCAAAAAUGCAGGGGUCUAAAACUGAGCGGAUAACCUCUCUAUGG RNA 2: GGGAAUGGAUCCACAUCUACGAAUUCGUACCAUAGAGAGGUUCUUCGCUCACCGAGAUCGGAAGAGCACACGU | 8.9 ± 0.4 |
| target 1 del13,del15 (mixed) RNA 1: CACCCGUGCAAAAAUGCAGGGGUCUAAAACUGAGCGGAUAACCUCUCUAUGG RNA 2: GGGAAUGGAUCCACAUCUACGAAUUCGUACCAUAGAAGUUAUCCGCUCACCGAGAUCGGAAGAGCACACGU | 30 ± 5 |
| target 1 C4U,G5A (mixed) RNA 1: CACCCGUGCAAAAAUGCAGGGGUCUAAAACUGAGCGGAUAACCUCUCUAUGG RNA 2: GGGAAUGGAUCCACAUCUACGAAUUCGUACCAUAGAGAGGUUAUCCAUUCACCGAGAUCGGAAGAGCACACGU | 14.2 ± 1.5 |
| target 1 A9U,G12C (mixed) RNA 1: CACCCGUGCAAAAAUGCAGGGGUCUAAAACUGAGCGGAUAACCUCUCUAUGG RNA 2: GGGAAUGGAUCCACAUCUACGAAUUCGUACCAUAGAGAGCUUUUCCGCUCACCGAGAUCGGAAGAGCACACGU | ~46 |
| target 1 insG 3' of 16,insC 3' of 10 (mixed) RNA 1: CACCCGUGCAAAAAUGCAGGGGUCUAAAACUGAGCGGAUAACCUCUCUAUGG RNA 2: GGGAAUGGAUCCACAUCUACGAAUUCGUACCAUAGAGGAGGUUCAUCCGCUCACCGAGAUCGGAAGAGCACACGU | 40 ± 9 |
| target 1 insG 3' of 18,insC 3' of 3 (mixed) RNA 1: CACCCGUGCAAAAAUGCAGGGGUCUAAAACUGAGCGGAUAACCUCUCUAUGG RNA 2: GGGAAUGGAUCCACAUCUACGAAUUCGUACCAUAGGAGAGGUUAUCCGCUCCACCGAGAUCGGAAGAGCACACGU | 80 ± 9 |
| target 1 insC 3' of 14,insA 3' of 6 (mixed) RNA 1: CACCCGUGCAAAAAUGCAGGGGUCUAAAACUGAGCGGAUAACCUCUCUAUGG RNA 2: GGGAAUGGAUCCACAUCUACGAAUUCGUACCAUAGAGACGGUUAUCCAGCUCACCGAGAUCGGAAGAGCACACGU | 56 ± 12 |
| target 1 insA 3' of 19,insC 3' of 1 (mixed) RNA 1: CACCCGUGCAAAAAUGCAGGGGUCUAAAACUGAGCGGAUAACCUCUCUAUGG RNA 2: GGGAAUGGAUCCACAUCUACGAAUUCGUACCAUAAGAGAGGUUAUCCGCUCACCCGAGAUCGGAAGAGCACACGU | 18.6 ± 2.4 |
| target 1 insA 3' of 19,insA 3' of 2 (mixed) RNA 1: CACCCGUGCAAAAAUGCAGGGGUCUAAAACUGAGCGGAUAACCUCUCUAUGG RNA 2: GGGAAUGGAUCCACAUCUACGAAUUCGUACCAUAAGAGAGGUUAUCCGCUCAACCGAGAUCGGAAGAGCACACGU | 19.9 ± 2.1 |
| target 1 insA 3' of 19,insG 3' of 1 (mixed) RNA 1: CACCCGUGCAAAAAUGCAGGGGUCUAAAACUGAGCGGAUAACCUCUCUAUGG RNA 2: GGGAAUGGAUCCACAUCUACGAAUUCGUACCAUAAGAGAGGUUAUCCGCUCAGCCGAGAUCGGAAGAGCACACGU | 20 ± 1.3 |
| target 1 insA 3' of 21,insU 3' of 21 (mixed) RNA 1: CACCCGUGCAAAAAUGCAGGGGUCUAAAACUGAGCGGAUAACCUCUCUAUGG RNA 2: GGGAAUGGAUCCACAUCUACGAAUUCGUACCAUAUAGAGAGGUUAUCCGCUCACCGAGAUCGGAAGAGCACACGU | 9.1 ± 0.5 |
| target 1 C4A,A14U (mixed) RNA 1: CACCCGUGCAAAAAUGCAGGGGUCUAAAACUGAGCGGAUAACCUCUCUAUGG RNA 2: GGGAAUGGAUCCACAUCUACGAAUUCGUACCAUAGAGUGGUUAUCCGAUCACCGAGAUCGGAAGAGCACACGU | ~60 |
| target 1 insU 3' of 9,insU 3' of 7 (mixed) RNA 1: CACCCGUGCAAAAAUGCAGGGGUCUAAAACUGAGCGGAUAACCUCUCUAUGG RNA 2: GGGAAUGGAUCCACAUCUACGAAUUCGUACCAUAGAGAGGUUAUUCUCGCUCACCGAGAUCGGAAGAGCACACGU | 25.4 ± 1.3 |
| target 1 A16U,G17C (mixed) RNA 1: CACCCGUGCAAAAAUGCAGGGGUCUAAAACUGAGCGGAUAACCUCUCUAUGG RNA 2: GGGAAUGGAUCCACAUCUACGAAUUCGUACCAUACUGAGGUUAUCCGCUCACCGAGAUCGGAAGAGCACACGU | 87 ± 23 |
| target 1 insC 3' of 18,insA 3' of 12 (mixed) RNA 1: CACCCGUGCAAAAAUGCAGGGGUCUAAAACUGAGCGGAUAACCUCUCUAUGG RNA 2: GGGAAUGGAUCCACAUCUACGAAUUCGUACCAUACGAGAGGAUUAUCCGCUCACCGAGAUCGGAAGAGCACACGU | 80 ± 22 |
